pKd: −log10 of the molar value.
Biological target: sDMA-containing peptide (Bio-…[sDMA]G[sDMA]G[sDMA]G[sDMA]KPN)
Experiment: SPR

pKd: 4.57
Substance: His-tagged N-terminal deleted BmPAPI (ΔN-BmPAPI: amino acids 48–629) (domain or fragment)

— publication PMC3854531
